The results in this text go back to PMC6033465.

Broadly, the Kd is the equilibrium constant for the complex coming apart.

One assay concerns the target human lysozyme c (human) (UniProt P61626).
For assay [1], the target named is recombinant wild type SliC (surface-exposed lysozyme inhibitor of c-type lysozyme, NGO1063) of N. gonorrhoeae FA1090 (N. gonorrhoeae FA1090). The experiment in a line: BLI; biotinylated rSliC (20 ug/mL, 10 min) immobilised on streptavidin sensors, increasing concentrations of HL in solution; Kinetic Buffer (20 mM HEPES pH 8, 15 mM NaCl, 0.002 Tween 20, 0.1 mg/mL BSA); association and dissociation 600 s; 2:1 (Heterogeneous Ligand) model; three biological …; OctetRed 96.

The molecule “recombinant wild type SliC (surface-exposed lysozyme inhibitor of c-type lysozyme, NGO1063) of N. gonorrhoeae FA1090 (natural protein)” registered an IC50 of SliC against the lytic activity of HL towards M. lysodeikticus peptidoglycan (fluorescein-labeled cell walls; 2.5 μM HL, 0-10 μM SliC) with human lysozyme c (human) of 1.85 µM.

B1: human lysozyme c (enzyme)
chain: KVFERCELARTLKRLGMDGYRGISLANWMCLAKWESGYNTRATNYNAGDRSTDYGIFQINSRYWCNDGKTPGAVNACHLSCSALLQDNIADAVACAKRVVRDPQGIRAWVAWRNRCQNRDVRQYVQGCGV
For the molecule B1, the Kd in assay [1] was 9.2 µM.
